# From patent US20160051654A1 (IMMATICS BIOTECHNOLOGIES, published 2016)
# Ends that are not written are not given here.
# Legend:
# [1] = molecular target: T1, HLA-A*0201 (recombinant HLA-A*0201 heavy chain with human beta-2 microglobulin) (human); assay: EpI ELISA: refolding of recombinant HLA-A*0201 with b2m and graded peptide
# [2] = molecular target: T1, HLA-A*0201 (recombinant HLA-A*0201 …); assay: ELISA-based refolding assay: recombinant HLA-A*0201, b2m and graded peptide
Binder,binding result [1],further results
"ALSNLEVTL (also: acetate salt, also called IMA-C20-001) [C20-001]",binds,
KLGDFGLATVV [DCA-001],,binding result [2]: binds
KLTDIQIEL [JAK-001],,binding result [2]: binds
ILAPVILYI (also called IMA-NOX-001) [NOX-001],binds,
ALFVRLLALA (also called IMA-TGFBI-001) [TGFBI-001],,fold lower KD compared with the majority of peptides [1]: 100 fold

# More lines, main results first:
binding result [1],Binder,further results
binds,KLMDLDVEQL (also called IMA-PCN-001) [PCN-001],
binds,KIFDEILVNA (also called IMA-TOP-001) [TOP-001],
